Data on one protein can be found in publication PMC4735815, “Protein unfolding as a switch from self-recognition to high-affinity client binding” (Nature Communications, 2016).

The data set concerns the molecule itself. As to the kind of experiment: cross-linking; in vitro UV crosslinking of purified Hsp33^M172S-BPA variants alone; dimers at ∼70 kDa.

The term stoichiometry N denotes a count of units in the complex or per binding partner.

B1: Hsp33^M172SL202BPA (natural protein)
chain: MIMPQHDQLHRYLFENFAVRGELVTVSETLQQILENHDYPQPVKNVLAELLVATSLLTATLKFDGDITVQLQGDGPMNLAVINGNNNQQMRGVARVQGEIPENADLKTLVGNGYVVITITPSEGERYQGVVGLEGDTLAACLEDYFMRSEQLPTRLFIRTGDVDGKPAAGGSLLQVMPAQNAQQDDFDHLATLTETIKTEEFLTLPANEVLWRLYHEEEVTVYDPQDVEFKCTCSRERCADALKTLPDEEVDSILAEDGEIDMHCDYCGNHYLFNAMDIAEIRNNASPADPQVH
modifications: p-benzoyl-L-phenylalanine (BPA) at position 202
Take B1: the “stoichiometry N” value was 2.
